In paper PMC4627090, “Slicer-independent mechanism drives small-RNA strand separation during human RISC assembly”:

Target: recombinant human AGO2 (rhAGO2) (Homo sapiens, UniProt Q9UKV8 1-859)
Assay: EMSA; 25 C; EMSA: 10 mM HEPES-KOH pH 7.4, 50 mM KCl, 1 mM DTT, 3% Ficoll-400, 0.1 mg/ml BSA, 10 nM RNA, 0-200 nM hAGO2, 30 min at 25 or 37 C, 6% native gel at 4 C; RISC assembly in HEK293T lysate at 0.75-3.75 mM Mg2+, 25 or 37 C
Conditions: protein: recombinant; tags: N-terminal FLAG and His; label: 32P; single strand

Sequence of recombinant human AGO2 (rhAGO2) (Q9UKV8 whole entry): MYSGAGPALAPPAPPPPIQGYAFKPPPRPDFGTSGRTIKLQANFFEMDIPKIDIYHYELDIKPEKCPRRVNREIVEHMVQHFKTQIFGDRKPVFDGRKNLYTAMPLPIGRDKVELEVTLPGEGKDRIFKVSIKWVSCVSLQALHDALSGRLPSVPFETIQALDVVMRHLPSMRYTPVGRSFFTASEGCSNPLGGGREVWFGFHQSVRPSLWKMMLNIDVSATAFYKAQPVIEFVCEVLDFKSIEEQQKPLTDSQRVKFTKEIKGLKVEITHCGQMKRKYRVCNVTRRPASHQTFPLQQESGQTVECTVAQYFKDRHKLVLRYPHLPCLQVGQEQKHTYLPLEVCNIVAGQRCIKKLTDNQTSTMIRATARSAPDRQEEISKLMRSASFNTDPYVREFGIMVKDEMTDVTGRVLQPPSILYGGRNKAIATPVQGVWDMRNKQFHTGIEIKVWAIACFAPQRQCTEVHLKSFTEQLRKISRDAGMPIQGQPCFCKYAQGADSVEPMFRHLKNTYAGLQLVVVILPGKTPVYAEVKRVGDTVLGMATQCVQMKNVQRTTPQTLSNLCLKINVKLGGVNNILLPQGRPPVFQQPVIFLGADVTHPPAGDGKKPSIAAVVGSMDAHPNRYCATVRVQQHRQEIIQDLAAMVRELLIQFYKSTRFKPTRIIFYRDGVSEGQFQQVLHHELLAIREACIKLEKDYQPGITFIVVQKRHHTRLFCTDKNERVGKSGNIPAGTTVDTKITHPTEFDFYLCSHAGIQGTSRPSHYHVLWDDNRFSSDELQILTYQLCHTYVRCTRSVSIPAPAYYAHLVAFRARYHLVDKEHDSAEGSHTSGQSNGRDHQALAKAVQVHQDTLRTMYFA

With UGGAAUGUAAAGAAGUAUGUA (ssRNA) [miR-1 guide ssRNA] the Kd was roughly 44.4 nM.
